Among the data in patent publication EP0638644A1 are I.P. ASSAY (cpm bound) and Kd values, retold here.

pKd: −log10 of the molar value.

In assay [1] the target is soluble complex of ¹²⁵I-IL-12 crosslinked to human IL-12R (human) (UniProt P29459). In words: immunoprecipitation of solubilized 125I-IL-12/IL-12R complex by immobilized control antibody (background).
Assay [2] deals with recombinant human IL-12 receptor (clone No. 5, SEQ ID NO:2) expressed in COS cells (human). In words: equilibrium binding of labelled murine IL-12 to COS cells expressing clone 5, Scatchard, single site (Figure 19B).

Sequence of soluble complex of ¹²⁵I-IL-12 crosslinked to human IL-12R (human) (P29459 23-219, form in doubt, chain 1 of 3, other chains not shown): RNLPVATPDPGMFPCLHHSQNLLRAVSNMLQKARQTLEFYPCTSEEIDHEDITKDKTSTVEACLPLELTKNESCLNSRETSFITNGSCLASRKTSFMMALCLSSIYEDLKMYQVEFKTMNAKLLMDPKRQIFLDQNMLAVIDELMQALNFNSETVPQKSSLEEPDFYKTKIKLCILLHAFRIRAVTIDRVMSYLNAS
Sequence of soluble complex of ¹²⁵I-IL-12 crosslinked to human IL-12R (human) (P29460 23-328, form in doubt, chain 2 of 3, other chains not shown, further chain): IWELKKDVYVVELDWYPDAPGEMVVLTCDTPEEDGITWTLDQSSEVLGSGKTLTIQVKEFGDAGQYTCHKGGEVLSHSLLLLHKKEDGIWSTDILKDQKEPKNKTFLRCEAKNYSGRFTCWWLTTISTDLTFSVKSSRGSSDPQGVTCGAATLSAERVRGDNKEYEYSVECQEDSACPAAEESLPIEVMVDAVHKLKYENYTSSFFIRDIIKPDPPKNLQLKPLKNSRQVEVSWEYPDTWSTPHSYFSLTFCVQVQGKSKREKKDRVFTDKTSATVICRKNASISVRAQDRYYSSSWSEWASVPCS

The substance Control mAb (Table 1) (antibody) came in with an I.P. ASSAY (cpm bound) in assay [1] of 402 cpm.

“Recombinant murine IL-12 (from UniProt P43431 23-215; P43432 23-335) (ligand)”: the pKd in assay [2] was 8.68.
